Data: patent publication US20250066745A1, “MUTANTS AND USE THEREOF” (BGI SHENZHEN, priority 2021, published 2025)
Substitutions are numbered along the chain they refer to. Names may count otherwise.

B1: Q152H Q163T T167S S170D G174K K178N A182Y G183N: Gaussia luciferase mutant (protein)
chain: MGVKVLFALICIAVAEAKPTENNEDFNIVAVASNFATTDLDADRGKLPGKKLPLEVLKEMEANARKAGCTRGCLICLSHIKCTPKMKKFIPGRCHTYEGDKESAQGGIGEAIVDIPEIPGFKDLEPMEQFIAQVDLCVDCTTGCLKGLANVHCSDLLKKWLPTRCASFADKIQKQVDNIKGYNGD
modifications: SIGNAL (1)..(17)
notes: Gaussia luciferase mutant
B2: T167S S170D G174N Q175E K178N A182L: Gaussia luciferase mutant (protein)
chain: B1 chain with H152Q, T163Q, K174N, Q175E, Y182L, N183G
modifications: SIGNAL (1)..(17)
notes: Gaussia luciferase mutant
B3: T96P Q163D T167S G174N K178S A182Y G183A: Gaussia luciferase mutant (protein)
chain: B1 chain with T96P, H152Q, T163D, D170S, K174N, N178S, N183A
modifications: SIGNAL (1)..(17)
notes: Gaussia luciferase mutant
B4: Q152R S154F Q163D S170T G174N K178T A182Y: Gaussia luciferase mutant (protein)
chain: B1 chain with H152R, S154F, T163D, S167T, D170T, K174N, N178T, N183G
modifications: SIGNAL (1)..(17)
notes: Gaussia luciferase mutant
B5: Q152R Q163T T167S S170N G174K K178S A182Y G183A: Gaussia luciferase mutant (protein)
chain: B1 chain with H152R, D170N, N178S, N183A
modifications: SIGNAL (1)..(17)
notes: Gaussia luciferase mutant
B6: Q152R Q163S T167G S170V G174K Q175E K178S A182Y G183A: Gaussia luciferase mutant (protein)
chain: B1 chain with H152R, T163S, S167G, D170V, Q175E, N178S, N183A
modifications: SIGNAL (1)..(17)
notes: Gaussia luciferase mutant
B7: Q163S T167S S170T G174N K178T: Gaussia luciferase mutant (protein)
chain: B1 chain with H152Q, T163S, D170T, K174N, N178T, Y182A, N183G
modifications: SIGNAL (1)..(17)
notes: Gaussia luciferase mutant
B8: Q152R T167G S170N K178S A182L G183N: Gaussia luciferase mutant (protein)
chain: B1 chain with H152R, T163Q, S167G, D170N, K174G, N178S, Y182L
modifications: SIGNAL (1)..(17)
notes: Gaussia luciferase mutant
B9: Q152R Q163S T167G S170D G174K A182Y G183A: Gaussia luciferase mutant (protein)
chain: B1 chain with H152R, T163S, S167G, N178K, N183A
modifications: SIGNAL (1)..(17)
notes: Gaussia luciferase mutant
B10: Q152K Q163D S170N G174K Q175E K178T A182L G183A: Gaussia luciferase mutant (protein)
chain: B1 chain with H152K, T163D, S167T, D170N, Q175E, N178T, Y182L, N183A
modifications: SIGNAL (1)..(17)
notes: Gaussia luciferase mutant

How the values were obtained:
[1] = Luminescence activity assay of purified Gaussia luciferase mutants on coelenterazine derivative ZS2; assay type: biochemical; set-up: key to Activity of mutant relative to wild-type Gaussia luciferase without the signal peptide: ratio of mutant luminescence intensity to wild-type Gaussia luciferase; details: Substrate ZS2 (Table 16)
Experimental: (§1) In this Example, the protein concentration was determined with a BCA quantitative kit (Thermo Scientific™ Pierce™ BCA Protein Assay Kit) accurately. The purified luciferase obtained in Example 5 was diluted with diluent (50 mM Tris-HCl, pH 8.0, 100 mM NaCl, 0.1% (v/v) Tween-20) to 1 μg/mL. The diluted luciferase, taken for 10 μL, was moved into a black 96-well plate, then added with 90 μL of the substrates coelenterazine, fluoro-coelenterazine or coelenterazine derivative ZS2 (purchased from Biolab) which was diluted into 100 μM with the same diluent, and the luminescence intensity of the plate was read with a self-luminescence module of a microplate reader. The mutation site of the mutant, the measured luminescence intensity, the ratio of luminescence intensities of the advantageous mutants to the wild-type Gaussia luciferase without the signal peptide having the sequence shown in SEQ ID NO: 3 are shown in Table 15. The results of catalytic activity assay of the advantageous mutants relative to the wild-type Gaussia luciferase without the signal peptide having the sequence shown in SEQ ID NO: 3 on substrate coelenterazine are shown in FIG. 6. […] The results of catalytic activity assay of the advantageous mutants relative to the wild-type Gaussia luciferase without the signal peptide having the sequence shown in SEQ ID NO: 3 on substrate fluoro-coelenterazine are shown in FIG. 7.
(§2) The new mutant library constructed in Example 7 was screened and tested for substrate specificity. Expression and purification schemes were the same as that in Example 5, and the activity assay scheme was the same as that in Example 6. The respective catalytic activities of combinatorial mutants on coelenterazine, fluoro-coelenterazine or coelenterazine derivative ZS2, and coelenterazine derivative ZS26 (purchased from BIOLAB) were assayed, and comparisons among the substrate specificities of the combinatorial mutants were based on the ratios of catalytic activities on two corresponding substrates.

[2] = Luminescence activity assay of purified Gaussia luciferase mutants on coelenterazine; assay type: biochemical; set-up: key to Activity of mutant relative to wild-type Gaussia luciferase without the signal peptide: ratio of mutant luminescence intensity to wild-type Gaussia luciferase; details: Substrate CTZ (Table 16)
Experimental: as §1, §2

Molecule | Activity of mutant relative to wild-type Gaussia luciferase without the signal peptide [1] | Activity of mutant relative to wild-type Gaussia luciferase without the signal peptide [2]
B1 | 0.089 | 0.079
B2 | 0.890 | 0.850
B3 | 0.273 | 0.007
B4 | 0.003 | 0.020
B5 | 0.413 | 1.030
B6 | 1.011 | 0.992
B7 | 2.603 | 0.706
B8 | 0.737 | 0.807
B9 | 1.402 | 1.050
B10 | 1.183 | 1.079
